Test results: patent US12145975B2, “Fusion proteins for the treatment of cardiometabolic diseases” (Shattuck Labs, Inc., priority 2022, dated 2024)

T1: recombinant human GDF-8 (Homo sapiens, UniProt O14793)
T1 sequence (O14793 267-375): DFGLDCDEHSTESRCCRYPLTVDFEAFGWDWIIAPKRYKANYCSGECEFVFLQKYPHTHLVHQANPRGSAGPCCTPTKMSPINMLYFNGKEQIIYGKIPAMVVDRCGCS

T2: recombinant human Activin A (Homo sapiens, UniProt P08476)
T2 sequence (P08476 311-426): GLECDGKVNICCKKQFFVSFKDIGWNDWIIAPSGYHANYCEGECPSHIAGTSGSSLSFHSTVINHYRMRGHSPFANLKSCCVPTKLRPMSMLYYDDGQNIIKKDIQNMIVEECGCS

T3: GIP receptor (GIPR) (Rattus norvegicus, UniProt P43219)
T3 construct: endogenous in cells; host or cells: rat INS-1 insulinoma cells (derivatives with a cAMP-luciferase reporter or pGloSensor-22F)
T3 sequence (P43219 19-455): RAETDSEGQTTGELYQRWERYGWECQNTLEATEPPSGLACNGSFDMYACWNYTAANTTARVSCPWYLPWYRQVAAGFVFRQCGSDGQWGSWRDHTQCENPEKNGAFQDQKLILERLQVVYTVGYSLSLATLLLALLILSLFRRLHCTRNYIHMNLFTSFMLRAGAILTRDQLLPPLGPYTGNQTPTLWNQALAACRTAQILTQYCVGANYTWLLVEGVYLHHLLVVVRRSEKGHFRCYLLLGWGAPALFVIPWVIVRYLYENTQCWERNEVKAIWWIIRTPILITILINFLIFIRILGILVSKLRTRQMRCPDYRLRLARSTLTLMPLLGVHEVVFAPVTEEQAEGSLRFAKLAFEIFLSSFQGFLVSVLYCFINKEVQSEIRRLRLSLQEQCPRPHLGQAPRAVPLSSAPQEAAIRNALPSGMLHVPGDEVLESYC


Experiments:
[1] = target: T1, recombinant human GDF-8; assay: MSD platform-based binding assay to plate-bound GDF-8; details: anti-human Fc detection
Protocol: (§1) The binding by a recombinant human ACVR2B-Fc fusion protein to GDF-8 (also known as myostatin) was characterized using a Meso Scale Discovery (MSD) platform-based assay. Briefly, GDF-8 was coated on a plate and 8× serial dilutions of the purified recombinant human ACVR2B-Fc fusion protein were also added in a series of wells. The protein captured by the plate-bound GDF-8 was detected using an anti-human Fc antibody and a SULFO-TAG conjugated secondary antibody.
(§2) The binding to GDF-8 by the GLP-1-Fc-ACVR2B fusion protein produced using the mmRNA constructs was investigated using a Meso Scale Discovery (MSD) platform-based assay. Briefly, HEK293T cells were transfected with each mRNA construct using lipofectamine 2000, and culture supernatants were collected after 48 hours. GDF-8 was coated on a plate, and 3× serial dilutions of the culture supernatants were added to the plate for capture by the plate-bound GDF-8. The protein captured by the plate-bound GDF-8 was detected using an anti-human Fc antibody and a SULFO-TAG conjugated secondary antibody. The MSD signals generated by the culture supernatants of HEK293T cells transfected with different mmRNA constructs were plotted as a line graph.

[2] = target: T2, recombinant human Activin A; assay: MSD platform-based binding assay to plate-bound Activin A; details: anti-human Fc detection
Protocol: as §1, with “to activin A” for “to GDF-8”, “as Inhibin beta A)” for “as myostatin)”, “Briefly, Activin A” for “Briefly, GDF-8”, “plate-bound Activin A” for “plate-bound GDF-8”
as §2, with “Activin A” for “GDF-8”, “Activin A.” for “GDF-8.”

[3] = tested on: rat insulinoma INS-1 cells; assay: in vitro glucose-stimulated insulin secretion (GSIS) in rat insulinoma INS-1 cells; assay type: cell-based; details: 1 hour glucose, then 2 hour incubation; ELISA; FIG. 4B
Text: X is a known inducer of GSIS.

[4] = target: T3, GIP receptor (GIPR); assay: cAMP-Glo assay in rat insulinoma INS-1 cells harboring a cAMP-luciferase reporter gene; assay type: cell-based; details: 1 hour glucose, then 2 hour incubation with increasing amounts; FIG. 4A
Text: Rat insulinoma INS-1 cells harboring a cAMP-luciferase reporter gene were used to study the activation of GIPR. Without wishing to be bound by theory, the activation of GIPR leads to temporary depletion of ATP because of consumption of ATP in cyclization reaction to produce cAMP as well as by phosphorylation by protein kinase A of its substrate. Without wishing to be bound by theory, the temporary depletion of ATP leads to an inhibition of luciferase activity, which needs ATP as a substrate.

binding to GDF-8 [1] | binding to Activin A [2] | Molecule | insulin in the culture supernatant (glucose-stimulated insulin secretion) [3] | inhibition of luciferase (activation of GIPR) [4]
binds to the human GDF-8 | binds to the human Activin A | GLP-1-Fc-ACVR2B: GLP-1 fused to extracellular domain of ACVR2B via IgG1 Fc domain; SEQ ID NO: 154; tested as culture supernatant of mmRNA-transfected HEK293T cells | – | –
– | – | GIP(Ag)-Fc-FGF19: chimeric protein: GIP fused to FGF19 via IgG1 hinge-CH2-CH3 Fc domain; SEQ ID NO: 88 (protein) YAEGTFISDYSIAMDKIHQQDFVNWLLAQKGKKNDWKHNITQPCPAPEAAGGPSVFLFPPKPKDTLMISRTPEVTCVVVDVSHEDPEVKFNWYVDGVEVHNAKTKPREEQYNSTYRVVSVLTVLHQDWLNGKEYKCKVSNKALPAPIEKTISKAKGQPREPQVYTLPPSRDELTKNQVSLTCLVKGFYPSDIAVEWESNGQPENNYKTTPPVLDSDGSFFLYSKLTVDKSRWQQGNVFSCSVMHEALHNHYTQKSLSLSPGKIEGRMDRDSSPLVHYGWGDPIRLRHLYTSGPHGLSSCFLRIRADGVVDCARGQSAHSLLEIKAVALRTVAIKGVHSVRYLCMGADGKMQGLLQYSEEDCAFEEEIRPDGYNVYRSEKHRLPVSLSSAKQRQLYKNRGFLPLSHFLPMLPMVPEEPEDLRGHLESDMFSSPLETDSMDPFGLVTGLEAVRSPSFEK | stimulated insulin production to a similar, if not greater magnitude than dulaglutide or tirzepatide | dose-dependent and saturable inhibition of luciferase with similar potency
